Measurements taken from patent US20260242478A1 (published 2026).
Where no end group is shown, it is not given here.

B1: Phage-2738 (Peptide-180 library clone) (peptide)
peptide: WEKLCRPAWMCAAY
modifications: cysteine pairing not given here; also: fused to pIII, displayed on bacteriophage
B2: Phage-2710 (peptide)
peptide: SVKWCTPPWMCTGL
modifications: cysteine pairing not given here; also: displayed on bacteriophage as fusion to pIII, linker not given here
B3: Phage-2711 (peptide)
peptide: NVSMCIPNWMCVGL
modifications: cysteine pairing not given here; also: displayed on bacteriophage as fusion to pIII, linker not given here
B4: Phage-2712 (peptide)
peptide: WENWCRPSWMCEDT
modifications: cysteine pairing not given here; also: displayed on bacteriophage as fusion to pIII, linker not given here
B5: Phage-2713 (peptide)
peptide: NTHWCTPSWMCSAW
modifications: cysteine pairing not given here; also: displayed on bacteriophage as fusion to pIII, linker not given here
B6: Phage-2714 (peptide)
peptide: HEKWCVPSWMCDDW
modifications: cysteine pairing not given here; also: displayed on bacteriophage as fusion to pIII, linker not given here
B7: Phage-2715 (peptide)
peptide: VYKWCTPSWMCADP
modifications: cysteine pairing not given here; also: displayed on bacteriophage as fusion to pIII, linker not given here
B8: Phage-2716 (peptide)
peptide: VANWCTPKWMCEHV
modifications: cysteine pairing not given here; also: displayed on bacteriophage as fusion to pIII, linker not given here
B9: Phage-2717 (peptide)
peptide: EYTWCKPAWMCDGV
modifications: cysteine pairing not given here; also: displayed on bacteriophage as fusion to pIII, linker not given here
B10: Phage-2718 (peptide)
peptide: TQKWCIPAWMCAER
modifications: cysteine pairing not given here; also: displayed on bacteriophage as fusion to pIII, linker not given here
B11: Phage-2719 (peptide)
peptide: DMHWCTPQWMCAPL
modifications: cysteine pairing not given here; also: displayed on bacteriophage as fusion to pIII, linker not given here
B12: Phage-2720 (peptide)
peptide: DWKWCTPSWMCAQK
modifications: cysteine pairing not given here; also: displayed on bacteriophage as fusion to pIII, linker not given here
B13: Phage-2756 (peptide)
peptide: AHNWCTPAWMCMWD
modifications: cysteine pairing not given here; also: fused to pIII, displayed on bacteriophage
notes: Clone of the Peptide-180 optimisation library, tested as clonal phage supernatant (peptide fused to pIII of the bacteriophage)
B14: Phage-2707 (peptide)
peptide: DHKWCTPPWMCAAD
modifications: cysteine pairing not given here; also: displayed on bacteriophage as fusion to pIII

Target: PSMA Fab (anti-PSMA Fab; 006 PSMA Fab)
Test: phage binding ELISA; clonal phage supernatant on biotinylated PSMA Fab captured on neutravidin plate; anti-M13 HRP detection
Method: (§1) Clonal phage were harvested as crude supernatants and screened via standard ELISAs. […] Prior to the addition of clonal phage. wells were incubated with blocking buffer and PSMA antigen or blocking buffer alone. Without washing or aspirating, clonal phage supernatants were then added to the wells and incubated for a short time. Wells were then washed followed by detection of bound phage using a horse radish conjugated anti-M13 antibody.

Binder | Phage binding ELISA signal, Anti-PSMA Fab
MEKMCTPQWMCDMW [Phage-2725 (Peptide-180 library clone)] | 0.749
INKWCTPAWMCDLS [Phage-2726 (Peptide-180 library clone)] | 0.747
WQKWCTPMWMCEAT [Phage-2727 (Peptide-180 library clone)] | 0.744
VNPSCTPSWMCLGL [Phage-2728 (Peptide-180 library clone)] | 0.739
LYNRCTPAWMCTGF [Phage-2729 (Peptide-180 library clone)] | 0.738
EMKWCKPEWMCPWM [Phage-2730 (Peptide-180 library clone)] | 0.733
VSNWCKPAWMCGTT [Phage-2731 (Peptide-180 library clone)] | 0.733
WEKWCTPPWMCHDM [Phage-2732 (Peptide-180 library clone)] | 0.733
DIKWCTPSWMCPAK [Phage-2733 (Peptide-180 library clone)] | 0.729
QMPLCIPQWMCTNN [Phage-2734 (Peptide-180 library clone)] | 0.723
HGKLCTPSWMCNGF [Phage-2735 (Peptide-180 library clone)] | 0.721
IVKWCTPAWMCDQQ [Phage-2736 (Peptide-180 library clone)] | 0.72
TNNWCIPSWMCDIR [Phage-2737 (Peptide-180 library clone)] | 0.718
B1 | 0.715
FENWCTPYWMCSGM [Phage-2739 (Peptide-180 library clone)] | 0.712

Target: T1, PSMA Fab (006 PSMA Fab)
T1 construct: also called Anti-PSMA Fab; anti-PSMA Fab
Test: clonal phage ELISA; biotinylated PSMA Fab on neutravidin plate, blocking buffer alone, anti-M13-HRP detection;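 also: crude clonal phage supernatants added without washing to wells preincubated with PSMA antigen or with blocking buffer alone, briefly incubated, then washed before bound phage detection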
Method: as §1

Binder | Phage binding ELISA signal, Anti-PSMA Fab
B2 | 0.792
B3 | 0.791
B4 | 0.79
B5 | 0.789
B6 | 0.784
B7 | 0.779
B8 | 0.777
B9 | 0.774
B10 | 0.774
B11 | 0.771
B12 | 0.769
NVKWCVPHWMCEVS [Phage-2721] | 0.765
DQKWCIPLWMCETR [Phage-2722] | 0.762
DYKWCTPMWMCEVV [Phage-2723] | 0.753
EWKWCTPPWMCTTN [Phage-2724] | 0.752

Target: T2, 006 PSMA Fab (biotinylated (site not stated))
T2 construct: Biotinylated PSMA Fab captured on neutravidin coated plates in the panning ELISA; also called Anti-PSMA Fab
Test: clonal phage ELISA on biotinylated PSMA Fab captured on neutravidin plates, anti-M13-HRP detection;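 also: crude clonal phage supernatants added to wells preincubated with PSMA antigen or with blocking buffer only (no wash between), briefly incubated, then washed before detecting bound phage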

Binder | phage binding ELISA signal
B13 | 0.682

Target: T2, 006 PSMA Fab
Test: clonal phage ELISA on captured PSMA Fab, wells pre-incubated with PSMA antigen as competitor
Method: as §1

Binder | phage binding ELISA signal in presence of PSMA antigen
B13 | 0.0753

Target: T3, 006 PSMA Fab
T3 construct: also called Anti-PSMA Fab
Test: phage binding ELISA; biotinylated PSMA Fab on neutravidin plate, clonal phage supernatant, anti-M13 HRP detection; blocking buffer alone;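 also: before phage were added, wells were preincubated with blocking buffer either containing PSMA antigen or without it, and phage were then added with no wash in between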
Method: as §1

Binder | Phage binding ELISA signal, Anti-PSMA Fab
B14 | 0.797
MDRWCTPAWMCEVH [Phage-2708] | 0.794
PDNWCIPAWMCERF [Phage-2709] | 0.793

Target: T1, PSMA Fab (006 PSMA Fab)
Test: clonal phage ELISA; biotinylated PSMA Fab on neutravidin plate, wells pre-incubated with PSMA antigen (competitor), anti-M13-HRP detection
Method: as §1

Binder | Phage binding ELISA signal, Anti-PSMA Fab in presence of PSMA antigen
B2 | 0.0767
B3 | 0.0891
B4 | 0.0568
B5 | 0.0816
B6 | 0.0669
B7 | 0.0676
B8 | 0.0631
B9 | 0.0742
B10 | 0.0702
B11 | 0.0856
B12 | 0.0639
NVKWCVPHWMCEVS [Phage-2721] | 0.0649
DQKWCIPLWMCETR [Phage-2722] | 0.0727
DYKWCTPMWMCEVV [Phage-2723] | 0.0761
EWKWCTPPWMCTTN [Phage-2724] | 0.0835

Target: T3, 006 PSMA Fab
Test: phage binding ELISA; biotinylated PSMA Fab on neutravidin plate pre-incubated with PSMA antigen as competitor, clonal phage supernatant, anti-M13 HRP detection
Method: as §1

Binder | Phage binding ELISA signal, Anti-PSMA Fab with PSMA antigen
B14 | 0.0877
MDRWCTPAWMCEVH [Phage-2708] | 0.0734
PDNWCIPAWMCERF [Phage-2709] | 0.0679

Target: PSMA Fab (anti-PSMA Fab; 006 PSMA Fab)
Test: phage binding ELISA on captured PSMA Fab; wells first incubated with PSMA antigen as competitor; anti-M13 HRP detection
Method: as §1

Binder | Phage binding ELISA signal, Anti-PSMA Fab with PSMA antigen
MEKMCTPQWMCDMW [Phage-2725 (Peptide-180 library clone)] | 0.0732
INKWCTPAWMCDLS [Phage-2726 (Peptide-180 library clone)] | 0.0937
WQKWCTPMWMCEAT [Phage-2727 (Peptide-180 library clone)] | 0.0785
VNPSCTPSWMCLGL [Phage-2728 (Peptide-180 library clone)] | 0.0793
LYNRCTPAWMCTGF [Phage-2729 (Peptide-180 library clone)] | 0.0657
EMKWCKPEWMCPWM [Phage-2730 (Peptide-180 library clone)] | 0.0688
VSNWCKPAWMCGTT [Phage-2731 (Peptide-180 library clone)] | 0.079
WEKWCTPPWMCHDM [Phage-2732 (Peptide-180 library clone)] | 0.0669
DIKWCTPSWMCPAK [Phage-2733 (Peptide-180 library clone)] | 0.0862
QMPLCIPQWMCTNN [Phage-2734 (Peptide-180 library clone)] | 0.0562
HGKLCTPSWMCNGF [Phage-2735 (Peptide-180 library clone)] | 0.0619
IVKWCTPAWMCDQQ [Phage-2736 (Peptide-180 library clone)] | 0.0809
TNNWCIPSWMCDIR [Phage-2737 (Peptide-180 library clone)] | 0.0629
B1 | 0.0754
FENWCTPYWMCSGM [Phage-2739 (Peptide-180 library clone)] | 0.0884
